Tests used:
[1] = biological target: DJ5 peptide (GDF8 residues 327-346) (human); test: ELISA, peptide coated 500 ng/well; MAB 788 10 mg/ml diluted 1:20
[2] = biological target: DJ1 peptide (GDF8 residues 267-286) (human); test: as above
[3] = biological target: DJ7 peptide (GDF8 residues 357-375) (human); test: as above
[4] = biological target: DJ2 peptide (GDF8 residues 282-301) (human); test: as above
[5] = biological target: DJ6 peptide (GDF8 residues 342-361) (human); test: as above
[6] = biological target: DJ4 peptide (GDF8 residues 312-331) (human); test: as above
[7] = biological target: DJ3 peptide (GDF8 residues 297-316) (human); test: as above
[8] = biological target: DJ5 peptide (GDF8 residues 327-346) (human); test: ELISA, peptide coated 500 ng/well; MAB 788 10 mg/ml diluted 1:80
[9] = biological target: DJ1 peptide (GDF8 residues 267-286) (human); test: as above
[10] = biological target: DJ7 peptide (GDF8 residues 357-375) (human); test: as above
[11] = biological target: DJ2 peptide (GDF8 residues 282-301) (human); test: as above
[12] = biological target: DJ6 peptide (GDF8 residues 342-361) (human); test: as above
[13] = biological target: DJ4 peptide (GDF8 residues 312-331) (human); test: as above
[14] = biological target: DJ3 peptide (GDF8 residues 297-316) (human); test: as above
[15] = biological target: purified GDF8 prohormone with C-terminal FLAG epitope (GDF8 prohormone-FLAG fusion protein) (human) (UniProt O14793); test: ELISA, purified GDF8 prohormone coated 250 ng/well; MAB 788 10 mg/ml diluted 1:20
[16] = biological target: purified GDF8 prohormone with C-terminal FLAG epitope (GDF8 prohormone-FLAG fusion protein) (human) (UniProt O14793); test: ELISA, purified GDF8 prohormone coated 250 ng/well; MAB 788 10 mg/ml diluted 1:40
[17] = biological target: DJ5 peptide (GDF8 residues 327-346) (human); test: ELISA, peptide coated 500 ng/well; MAB 788 10 mg/ml diluted 1:40
[18] = biological target: DJ1 peptide (GDF8 residues 267-286) (human); test: as above
[19] = biological target: DJ7 peptide (GDF8 residues 357-375) (human); test: as above
[20] = biological target: DJ2 peptide (GDF8 residues 282-301) (human); test: as above
[21] = biological target: DJ6 peptide (GDF8 residues 342-361) (human); test: as above
[22] = biological target: DJ4 peptide (GDF8 residues 312-331) (human); test: as above
[23] = biological target: DJ3 peptide (GDF8 residues 297-316) (human); test: as above
[24] = biological target: GDF8 protein (R&D Systems Inc., Minneapolis, Minn.) (UniProt O14793); test: cell-based or functional assay
[25] = biological target: purified GDF8 prohormone with C-terminal FLAG epitope (GDF8 prohormone-FLAG fusion protein) (human) (UniProt O14793); test: ELISA, purified GDF8 prohormone coated 250 ng/well; MAB 788 10 mg/ml diluted 1:80

Chain of DJ6 peptide (GDF8 residues 342-361) (human) (peptide, as listed by the source): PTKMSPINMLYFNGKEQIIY
Chain of DJ1 peptide (GDF8 residues 267-286) (human) (peptide, as listed by the source): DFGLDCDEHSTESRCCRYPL
Chain of DJ7 peptide (GDF8 residues 357-375) (human) (peptide, as listed by the source): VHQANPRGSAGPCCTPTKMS
Chain of DJ3 peptide (GDF8 residues 297-316) (human) (peptide, as listed by the source): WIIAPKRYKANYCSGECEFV
Chain of DJ2 peptide (GDF8 residues 282-301) (human) (peptide, as listed by the source): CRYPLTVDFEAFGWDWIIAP
Chain of DJ4 peptide (GDF8 residues 312-331) (human) (peptide, as listed by the source): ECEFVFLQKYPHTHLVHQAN

Substance: Rat monoclonal antibody 788 (R&D Systems Inc., Cat. No. MAB788)
- OD 405/minute × 1000 (OD 405/minute × 1000) [1]: 133
- OD 405/minute × 1000 (OD 405/minute × 1000) [2]: 4
- OD 405/minute × 1000 (OD 405/minute × 1000) [3]: 0
- OD 405/minute × 1000 (OD 405/minute × 1000) [4]: 0
- OD 405/minute × 1000 (OD 405/minute × 1000) [5]: 0
- OD 405/minute × 1000 (OD 405/minute × 1000) [6]: 0
- OD 405/minute × 1000 (OD 405/minute × 1000) [7]: 0
- OD 405/minute × 1000 (OD 405/minute × 1000) [8]: 102
- OD 405/minute × 1000 (OD 405/minute × 1000) [9]: 0
- OD 405/minute × 1000 (OD 405/minute × 1000) [10]: 0
- OD 405/minute × 1000 (OD 405/minute × 1000) [11]: 0
- OD 405/minute × 1000 (OD 405/minute × 1000) [12]: 0
- OD 405/minute × 1000 (OD 405/minute × 1000) [13]: 0
- OD 405/minute × 1000 (OD 405/minute × 1000) [14]: 0
- OD 405/minute × 1000 (OD 405/minute × 1000) [15]: 132
- OD 405/minute × 1000 (OD 405/minute × 1000) [16]: 127
- OD 405/minute × 1000 (OD 405/minute × 1000) [17]: 118
- OD 405/minute × 1000 (OD 405/minute × 1000) [18]: 0
- OD 405/minute × 1000 (OD 405/minute × 1000) [19]: 0
- OD 405/minute × 1000 (OD 405/minute × 1000) [20]: 0
- OD 405/minute × 1000 (OD 405/minute × 1000) [21]: 0
- OD 405/minute × 1000 (OD 405/minute × 1000) [22]: 0
- OD 405/minute × 1000 (OD 405/minute × 1000) [23]: 0
- % Inhibition of GDF8 Activity (0.1 µg IgG), A204 CAGA-luciferase transcriptional activation assay [24]: 0%
- % Inhibition of GDF8 Activity (1.8 µg IgG), A204 CAGA-luciferase transcriptional activation assay [24]: 0%
- % Inhibition of GDF8 Activity (3.1 µg IgG), A204 CAGA-luciferase transcriptional activation assay [24]: 7%
- % Inhibition of GDF8 Activity (6.3 µg IgG), A204 CAGA-luciferase transcriptional activation assay [24]: 17%
- % Inhibition of GDF8 Activity (12.5 µg IgG), A204 CAGA-luciferase transcriptional activation assay [24]: 47%
- OD 405/minute × 1000 (OD 405/minute × 1000) [25]: 132

Substance: normal goat IgG (negative control purified from non-immunized goat sera) (antibody)
- % Inhibition of GDF8 Activity (250 µg IgG), A204 CAGA-luciferase transcriptional activation assay [24]: 0%

Source: US20090311282A1
